Results on 23 substances are retold here after patent US20070141052A1.

Assay [1] deals with biotin-labeled soluble FcRn. Briefly: ELISA: biotinylated soluble FcRn on NeutrAvidin plate, IgG supernatant at neutral pH, anti-human Fab-HRP detection. The note with it: scale: % of wild type.
For assay [2], the target named is biotin-labeled soluble FcRn. Nature of the assay: ELISA: biotinylated soluble FcRn on NeutrAvidin plate, IgG supernatant at pH 6.0, anti-human Fab-HRP detection. The settings on record: scale: % of wild type. (In general: An ELISA detects its analyte on a solid surface through an enzyme-linked reagent.)
In assay [3] the target is soluble human FcγRIII (human) (UniProt P08637). Briefly: antigen-capture ELISA: IgG captured on PSA-coated plate, biotinylated soluble human FcγR, NeutrAvidin-AP; background-subtracted, normalized to parent.
The target in assay [4] is soluble human FcγRIIb (human) (UniProt P31994). The description is as above.
Assay [5] deals with soluble human FcγRIIa (human) (UniProt P12318). Described as above.
Assay [6] addresses soluble human FcγRIII (human) (UniProt P08637). Nature of the assay: antigen-capture ELISA as for Tables 3-5 but with an anti-TNFα parent IgG; biotinylated soluble human FcγR; normalized to parent.
In assay [7] the target is soluble human FcγRIIb (human) (UniProt P31994). The description is as above.

Chain of UniProt P31994 (P31994 43-217): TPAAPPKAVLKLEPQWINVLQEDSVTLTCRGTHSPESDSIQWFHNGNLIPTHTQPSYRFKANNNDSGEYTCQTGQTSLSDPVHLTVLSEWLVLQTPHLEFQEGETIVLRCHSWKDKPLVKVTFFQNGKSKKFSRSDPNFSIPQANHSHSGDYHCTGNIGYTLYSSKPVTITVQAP
Chain of UniProt P08637 (P08637 17-208): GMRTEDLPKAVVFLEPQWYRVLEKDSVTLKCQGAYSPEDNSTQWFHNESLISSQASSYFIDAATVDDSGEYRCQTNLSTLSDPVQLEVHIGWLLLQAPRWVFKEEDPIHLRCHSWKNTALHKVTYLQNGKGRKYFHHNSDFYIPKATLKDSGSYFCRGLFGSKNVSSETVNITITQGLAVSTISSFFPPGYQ
Chain of UniProt P12318 (P12318 34-217): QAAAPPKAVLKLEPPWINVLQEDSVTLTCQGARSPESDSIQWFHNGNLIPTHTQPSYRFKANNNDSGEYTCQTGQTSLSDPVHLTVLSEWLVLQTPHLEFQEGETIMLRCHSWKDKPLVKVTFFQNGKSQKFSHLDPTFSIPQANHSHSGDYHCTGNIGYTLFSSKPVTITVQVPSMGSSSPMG

In the case of “anti-CD20 IgG Fc variant D280A (antibody)”, in assay [1], the FcRn 7.0 came to 51. The substance also gave a FcRn 6.0 in assay [2] of 71.

On to “anti-CD20 IgG Fc variant D280H (antibody)”, for which, in assay [1], the FcRn 7.0 is 90. Besides, the FcRn 6.0 in assay [2] was 91.

Take “anti-CD20 IgG Fc variant D280K (antibody)”: the FcRn 7.0 in assay [1] came to 131. In assay [2], this substance returned a FcRn 6.0 of 145.

“anti-CD20 IgG Fc variant D280N (antibody)”: the FcRn 7.0 in assay [1] amounted to 61. Moreover, the FcRn 6.0 in assay [2] stood at 93.

“anti-CD20 IgG Fc variant D280T (antibody)” showed a FcRn 7.0 in assay [1] of 23. Further, in assay [2], the FcRn 6.0 amounted to 82.

As to “anti-CD20 IgG Fc variant K290D (antibody)”, in assay [1], the FcRn 7.0 turned out to be 25. The FcRn 6.0 in assay [2] was found to be 154.

In assay [1], “anti-CD20 IgG Fc variant K290N (antibody)” returned a FcRn 7.0 of 17. This substance returned a FcRn 6.0 in assay [2] of 130.

In turn, “anti-CD20 IgG Fc variant K290P (antibody)” came in with a FcRn 7.0 in assay [1] of 34. The substance further showed a FcRn 6.0 in assay [2] of 146.

In assay [1], “anti-CD20 IgG Fc variant K290T (antibody)” displayed a FcRn 7.0 of 8. The same substance had a FcRn 6.0 in assay [2] of 148.

The substance “anti-CD20 IgG Fc variant K290V (antibody)” had a FcRn 7.0 in assay [1] of 73. For the same substance, in assay [2], the FcRn 6.0 is 149.

In the case of “anti-PSA IgG Fc variant E294N (antibody)”, the relative FcγRIII (relative to parental antibody (=1.0)) in assay [3] was found to be 1.14. The relative FcγRIIb (relative to parental antibody (=1.0)) in assay [4] was determined as 0.672.

Turning to “anti-PSA IgG Fc variant Q295K (antibody)”, the relative FcγRIII (relative to parental antibody (=1.0)) in assay [3] turned out to be 1.47. In assay [4], the relative FcγRIIb (relative to parental antibody (=1.0)) came out at 0.892.

Consider “anti-PSA IgG Fc variant Q295L (antibody)”, for which, in assay [5], the relative FcγRIIa (relative to parental antibody (=1.0)) came to 1.44. Besides, the relative FcγRIII (relative to parental antibody (=1.0)) in assay [3] is 1.06. Also, the relative FcγRIIb (relative to parental antibody (=1.0)) in assay [4] stood at 1.34.

As to “anti-PSA IgG Fc variant S298D (antibody)”, the relative FcγRIII (relative to parental antibody (=1.0)) in assay [3] turned out to be 2.31. For the same substance, the relative FcγRIIb (relative to parental antibody (=1.0)) in assay [4] is 0.188.

With “anti-PSA IgG Fc variant S298N (antibody)”, in assay [3], the relative FcγRIII (relative to parental antibody (=1.0)) stood at 1.42. In addition, in assay [4], the relative FcγRIIb (relative to parental antibody (=1.0)) came to 0.363.

As to “anti-PSA IgG Fc variant S298V (antibody)”, in assay [3], the relative FcγRIII (relative to parental antibody (=1.0)) was determined as 2.8. Further, the relative FcγRIIb (relative to parental antibody (=1.0)) in assay [4] was 0.592.

“anti-PSA IgG Fc variant Y300I (antibody)”: the relative FcγRIII (relative to parental antibody (=1.0)) in assay [3] worked out at 1.38. In addition, the relative FcγRIIb (relative to parental antibody (=1.0)) in assay [4] worked out at 1.26.

Regarding “anti-PSA IgG Fc variant Y300L (antibody)”, in assay [3], the relative FcγRIII (relative to parental antibody (=1.0)) worked out at 1.81. Further, the relative FcγRIIb (relative to parental antibody (=1.0)) in assay [4] was 1.36.

On to “anti-TNFα IgG Fc variant D280H (antibody)”, for which, in assay [6], the relative FcγRIII (relative to parental antibody (=1.0)) was 1.24. Further, the relative FcγRIIb (relative to parental antibody (=1.0)) in assay [7] worked out at 0.92.

In the case of “anti-TNFα IgG Fc variant D280Q (antibody)”, in assay [6], the relative FcγRIII (relative to parental antibody (=1.0)) was 1.19. The relative FcγRIIb (relative to parental antibody (=1.0)) in assay [7] worked out at 0.87.

As to “anti-TNFα IgG Fc variant D280Y (antibody)”, the relative FcγRIII (relative to parental antibody (=1.0)) in assay [6] amounted to 1.23. In assay [7], the relative FcγRIIb (relative to parental antibody (=1.0)) came out at 2.14.

Consider “anti-TNFα IgG Fc variant K290G (antibody)”, for which the relative FcγRIII (relative to parental antibody (=1.0)) in assay [6] turned out to be 1.64. In assay [7], the relative FcγRIIb (relative to parental antibody (=1.0)) turned out to be 1.46.

For the substance “anti-TNFα IgG Fc variant K290S (antibody)”, the relative FcγRIII (relative to parental antibody (=1.0)) in assay [6] came out at 1.23. In addition, the relative FcγRIIb (relative to parental antibody (=1.0)) in assay [7] turned out to be 1.4.
